Earlier results as cited in patent publication US20200069786A1, “COMPOSITION AND PROCESS FOR PREPARING VACCINE” (TREOS BIO ZRT., priority 2018, published 2020).
Read-outs that look alike come from different tables or passages of the source.

B1: PIWIL3 (protein, UniProt Q7Z3Z3 1-882, looked up)
Piwi-like protein 3: MPGRARTRARGRARRRESYQQEAPGGPRAPGSATTQEPPQLQSTPRPLQEEVPVVRPLQPRAARGGAGGGAQSQGVKEPGPEAGLHTAPLQERRIGGVFQDLVVNTRQDMKHVKDSKTGSEGTVVQLLANHFRVISRPQWVAYKYNVDYKPDIEDGNLRTILLDQHRRKFGERHIFDGNSLLLSRPLKERRVEWLSTTKDKNIVKITVEFSKELTPTSPDCLRYYNILFRRTFKLLDFEQVGRNYYTKKKAIQLYRHGTSLEIWLGYVTSVLQYENSITLCADVSHKLLRIETAYDFIKRTSAQAQTGNIREEVTNKLIGSIVLTKYNNKTYRVDDIDWKQNPEDTFNKSDGSKITYIDYYRQQHKEIVTVKKQPLLVSQGRWKKGLTGTQREPILLIPQLCHMTGLTDEICKDYSIVKELAKHTRLSPRRRHHTLKEFINTLQDNKKVRELLQLWDLKFDTNFLSVPGRVLKNANIVQGRRMVKANSQGDWSREIRELPLLNAMPLHSWLILYSRSSHREAMSLKGHLQSVTAPMGITMKPAEMIEVDGDANSYIDTLRKYTRPTLQMGMSCLLVFKVICILPNDDKRRYDSIKRYLCTKCPIPSQCVVKKTLEKVQARTIVTKIAQQMNCKMGGALWKVETDVQRTMFVGIDCFHDIVNRQKSIAGFVASTNAELTKWYSQCVIQKTGEELVKELEICLKAALDVWCKNESSMPHSVIVYRDGVGDGQLQALLDHEAKKMSTYLKTISPNNFTLAFIVVKKRINTRFFLKHGSNFQNPPPGTVIDVELTRNEWYDFFIVSQSVQDGTVTPTHYNVIYDTIGLSPDTVQRLTYCLCHMYYNLPGIIRVPAPCHYAHKLAYLVGQSIHQEPNRSLSTRLFYL
B2: CABYR (protein, UniProt O75952 1-493, looked up)
Calcium-binding tyrosine …: MISSKPRLVVPYGLKTLLEGISRAVLKTNPSNINQFAAAYFQELTMYRGNTTMDIKDLVKQFHQIKVEKWSEGTTPQKKLECLKEPGKTSVESKVPTQMEKSTDTDEDNVTRTEYSDKTTQFPSVYAVPGTEQTEAVGGLSSKPATPKTTTPPSSPPPTAVSPEFAYVPADPAQLAAQMLGKVSSIHSDQSDVLMVDVATSMPVVIKEVPSSEAAEDVMVAAPLVCSGKVLEVQVVNQTSVHVDLGSQPKENEAEPSTASSVPLQDEQEPPAYDQAPEVTLQADIEVMSTVHISSVYNDVPVTEGVVYIEQLPEQIVIPFTDQVACLKENEQSKENEQSPRVSPKSVVEKTTSGMSKKSVESVKLAQLEENAKYSSVYMEAEATALLSDTSLKGQPEVPAQLLDAEGAIKIGSEKSLHLEVEITSIVSDNTGQEESGENSVPQEMEGKPVLSGEAAEAVHSGTSVKSSSGPFPPAPEGLTAPEIEPEGESTAE
B3: HSPB9 (protein, UniProt Q9BQS6 1-159, looked up)
Heat shock protein beta-9: MQRVGNTFSNESRVASRCPSVGLAERNRVATMPVRLLRDSPAAQEDNDHARDGFQMKLDAHGFAPEELVVQVDGQWLMVTGQQQLDVRDPERVSYRMSQKVHRKMLPSNLSPTAMTCCLTPSGQLWVRGQCVALALPEAQTGPSPRLGSLGSKASNLTR
B4: THEG (protein, UniProt Q9P2T0 1-379, looked up)
Sperm microtubule associated …: MGDSRRRSLGNQPSSEAAGRSEREQDGDPRGLQSSVYESRRVTDPERQDLDNAELGPEDPEEELPPEEVAGEEFPETLDPKEALSELERVLDKDLEEDIPEISRLSISQKLPSTTMTKARKRRRRRRLMELAEPKINWQVLKDRKGRCGKGYAWISPCKMSLHFCLCWPSVYWTERFLEDTTLTITVPAVSRRVEELSRPKRFYLEYYNNNRTTPVWPIPRSSLEYRASSRLKELAAPKIRDNFWSMPMSEVSQVSRAAQMAVPSSRILQLSKPKAPATLLEEWDPVPKPKPHVSDHNRLLHLARPKAQSDKCVPDRDPRWEVLDVTKKVVASPRIISLAKPKVRKGLNEGYDRRPLASMSLPPPKASPEKCDQPRPGL
B5: NLRP4 (protein, UniProt Q96MN2 1-994, looked up)
NACHT, LRR and PYD …: MAASFFSDFGLMWYLEELKKEEFRKFKEHLKQMTLQLELKQIPWTEVKKASREELANLLIKHYEEQQAWNITLRIFQKMDRKDLCMKVMRERTGYTKTYQAHAKQKFSRLWSSKSVTEIHLYFEEEVKQEECDHLDRLFAPKEAGKQPRTVIIQGPQGIGKTTLLMKLMMAWSDNKIFRDRFLYTFYFCCRELRELPPTSLADLISREWPDPAAPITEIVSQPERLLFVIDSFEELQGGLNEPDSDLCGDLMEKRPVQVLLSSLLRKKMLPEASLLIAIKPVCPKELRDQVTISEIYQPRGFNESDRLVYFCCFFKDPKRAMEAFNLVRESEQLFSICQIPLLCWILCTSLKQEMQKGKDLALTCQSTTSVYSSFVFNLFTPEGAEGPTPQTQHQLKALCSLAAEGMWTDTFEFCEDDLRRNGVVDADIPALLGTKILLKYGERESSYVFLHVCIQEFCAALFYLLKSHLDHPHPAVRCVQELLVANFEKARRAHWIFLGCFLTGLLNKKEQEKLDAFFGFQLSQEIKQQIHQCLKSLGERGNPQGQVDSLAIFYCLFEMQDPAFVKQAVNLLQEANFHIIDNVDLVVSAYCLKYCSSLRKLCFSVQNVFKKEDEHSSTSDYSLICWHHICSVLTTSGHLRELQVQDSTLSESTFVTWCNQLRHPSCRLQKLGINNVSFSGQSVLLFEVLFYQPDLKYLSFTLTKLSRDDIRSLCDALNYPAGNVKELALVNCHLSPIDCEVLAGLLTNNKKLTYLNVSCNQLDTGVPLLCEALCSPDTVLVYLMLAFCHLSEQCCEYISEMLLRNKSVRYLDLSANVLKDEGLKTLCEALKHPDCCLDSLCLVKCFITAAGCEDLASALISNQNLKILQIGCNEIGDVGVQLLCRALTHTDCRLEILGLEECGLTSTCCKDLASVLTCSKTLQQLNLTLNTLDHTGVVVLCEALRHPECALQVLGLRKTDFDEETQALLTAEEERNPNLTITDDCDTITRVEI
B6: ADAM29 (protein, UniProt Q9UKF5 194-820, looked up)
Disintegrin and …: WIHFRIVEIVVVIDNYLYIRYERNDSKLLEDLYVIVNIVDSILDVIGVKVLLFGLEIWTNKNLIVVDDVRKSVHLYCKWKSENITPRMQHDTSHLFTTLGLRGLSGIGAFRGMCTPHRSCAIVTFMNKTLGTFSIAVAHHLGHNLGMNHDEDTCRCSQPRCIMHEGNPPITKFSNCSYGDFWEYTVERTKCLLETVHTKDIFNVKRCGNGVVEEGEECDCGPLKHCAKDPCCLSNCTLTDGSTCAFGLCCKDCKFLPSGKVCRKEVNECDLPEWCNGTSHKCPDDFYVEDGIPCKERGYCYEKSCHDRNEQCRRIFGAGANTASETCYKELNTLGDRVGHCGIKNATYIKCNISDVQCGRIQCENVTEIPNMSDHTTVHWARFNDIMCWSTDYHLGMKGPDIGEVKDGTECGIDHICIHRHCVHITILNSNCSPAFCNKRGICNNKHHCHCNYLWDPPNCLIKGYGGSVDSGPPPKRKKKKKFCYLCILLLIVLFILLCCLYRLCKKSKPIKKQQDVQTPSAKEEEKIQRRPHELPPQSQPWVMPSQSQPPVTPSQSHPQVMPSQSQPPVTPSQSQPRVMPSQSQPPVMPSQSHPQLTPSQSQPPVTPSQRQPQLMPSQSQPPVTPS
B7: PTTG-1 (protein, UniProt O95997 2-202, looked up)
Securin: ATLIYVDKENGEPGTRVVAKDGLKLGSGPSIKALDGRSQVSTPRFGKTFDAPPALPKATRKALGTVNRATEKSVKTKGPLKQKQPSFSAKKMTEKTVKAKSSVPASDDAYPEIEKFFPFNPLDFESFDLPEEHQIAHLPLSGVPLMILDEERELEKLFQLGPPSPVKMPSPPWESNLLQSPSSILSTLDVELPPVCCDIDI
B8: LEMD1 (protein, UniProt Q68G75 1-181, looked up)
LEM domain-containing protein …: MVDVKCLSDCKLQNQLEKLGFSPGPILPSTRKLYEKKLVQLLVSPPCAPPVMNGPRELDGAQDSDDSEELNIILQGNIILSTEKSKKLKKWPEASTTKRKAVDTYCLDYKPSKGRRWAARAPSTRITYGTITKERDYCAEDQTIESWREEGFPVGLKLAVLGIFIIVVFVYLTVENKSLFG
B9: GAGE-7 (protein, UniProt O76087 1-117, looked up)
G antigen 7: MSWRGRSTYYWPRPRRYVQPPEMIGPMRPEQFSDEVEPATPEEGEPATQRQDPAAAQEGEDEGASAGQGPKPEAHSQEQGHPQTGCECEDGPDGQEMDPPNPEEVKTPEEGEKQSQC
B10: COX6B2 (protein, UniProt Q6YFQ2 1-88, looked up)
Cytochrome c oxidase subunit …: MLDVEAQEPPKGKWSTPPFDPRFPSQNQIRNCYQNFLDYHRCLKTRTRRGKSTQPCEYYFRVYHSLCPISWVESWNEQIKNGIFAGKI
B11: CALR3 (protein, UniProt Q96L12 20-384, looked up)
Calreticulin-3: TVYFQEEFLDGEHWRNRWLQSTNDSRFGHFRLSSGKFYGHKEKDKGLQTTQNGRFYAISARFKPFSNKGKTLVIQYTVKHEQKMDCGGGYIKVFPADIDQKNLNGKSQYYIMFGPDICGFDIKKVHVILHFKNKYHENKKLIRCKVDGFTHLYTLILRPDLSYDVKIDGQSIESGSIEYDWNLTSLKKETSPAESKDWEQTKDNKAQDWEKHFLDASTSKQSDWNGDLDGDWPAPMLQKPPYQDGLKPEGIHKDVWLHRKMKNTDYLTQYDLSEFENIGAIGLELWQVRSGTIFDNFLITDDEEYADNFGKATWGETKGPEREMDAIQAKEEMKKAREEEEEELLSGKINRHEHYFNQFHRRNEL
B12: SPAG6 (protein, UniProt O75602 1-509, looked up)
Sperm-associated antigen 6: MSQRQVLQVFEQYQKARTQFVQMVAELATRPQNIETLQNAGVMSLLRTLLLDVVPTIQQTAALALGRLANYNDDLAEAVVKCDILPQLVYSLAEQNRFYKKAAAFVLRAVGKHSPQLAQAIVDCGALDTLVICLEDFDPGVKEAAAWALRYIARHNAELSQAVVDAGAVPLLVLCIQEPEIALKRIAASALSDIAKHSPELAQTVVDAGAVAHLAQMILNPDAKLKHQILSALSQVSKHSVDLAEMVVEAEIFPVVLTCLKDKDEYVKKNASTLIREIAKHTPELSQLVVNAGGVAAVIDCIGSCKGNTRLPGIMMLGYVAAHSENLAMAVIISKGVPQLSVCLSEEPEDHIKAAAAWALGQIGRHTPEHARAVAVTNTLPVLLSLYMSTESSEDLQVKSKKAIKNILQKCTYLPALEPFLYDAPPNILKHVVGQFSKVLPHDSKARRLFVTSGGLKKVQEIKAEPGSLLQEYINSINSCYPEEIVRYYSPGYSDTLLQRVDSYQPLNN

Test system: TSA
[1] = TSA expression rate in LUNG cancer
[2] = TSA expression rate in Esophageal

Molecule	Expression Rate (ER) % (TSA expression rate in CRC) [%]	Expression Rate (ER) % [1] [%]	TSA Expression Rate (ER) (LUNG) [%]	TSA Expression Rate (ER) (BREAST) [%]	also measured
B1	96	7	–	–	TSA Expression Rate (ER) (OVARIAN): 88%
B2	–	16	–	–	Expression Rate (ER) % [2]: 17%
B3	40	–	40	–	Expression Rate (ER) % [2]: 20%
B4	–	–	31	–	–
B5	–	–	38	–	–
B6	–	7	–	–	–
B7	–	–	20	–	–
B8	94	–	–	35	Expression Rate (ER) % (TSA expression rate in PROSTATE cancer): 23%
B9	–	–	–	31	Expression Rate (ER) % (TSA expression rate in HEAD and NECK): 9%
B10	–	–	24	–	–
B11	16	9	–	0	Expression Rate (ER) % (TSA expression rate in GASTRIC cancer): 40%; Expression Rate (ER) % (TSA expression rate in Kidney): 80%; Expression Rate (ER) % (TSA expression rate in MELANOMA): 44%
B12	–	–	29	21	–
